From the supplement of paper PMC7877785
± gives the uncertainty stated by the source.

Assay: self-splicing fitness, log relative to wild type (ln ratio); higher = more splicing; Tetrahymena group I intron in knt gene, E. coli kanamycin selection, DiMSum; sequences stand for … in CUCUCU…GGAGGGAAAAGUUAUCAGGCAUGCACCUGGUAGCUAGUCUUUAAACCAAUAGAUUGCAUCGGUUUAAAAGGCAAGACCGUCAAAUUGCGGGAAAGGGGUCAACAGCCGUUCAGUACCAAGUCUCAGGGGAAACUUUGAGAUGGCCUUGCAAAGGGUAUGGUAAUAAGCUGACGGACAUGGUCCUAACCACGCAGCCAAGUCCUAAGUCAACAGAUCUUCUGUUGAUAUGGAUGCAGUUCACAGACUAAAUGUCGGUCGGGGAAGAUGUAUUCUUCUCAUAAGAUAUAGUCGGACCUCUCCUUAAUGGGAGCUAGCGGAUGAAGUGAUGCAACACUGGAGCCGCUGGGAACUAAUUUGUAUGCGAAAGUAUAUUGAUUAGUUUUGGAGUACUCGUGGUCG
In short: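 The eight P1ex-region nucleotides of an intron in the knt kanamycin-resistance gene on pET-22b(+) were all randomised and the library put into E. coli BL21(DE3). Six replicate transformations were grown overnight at 37°C or 30°C on LB agar with or without 25 μg/mL kanamycin, together with 100 μg/mL carbenicillin, 50 μM IPTG and 0.2% rhamnose. Colonies were pooled and amplicon-sequenced on an Illumina HiSeq 2500. Fitness from DiMSum is the error-weighted combination of wild-type-normalised replicate fold changes, kanamycin over none.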

Row | Sequence | self-splicing fitness (ln) (30 °C) | self-splicing fitness (ln) (37 °C)
1 | UACGAGCAAUAUUACGACUU | -2.11 ± 0.13 | -0.959 ± 0.15
2 | UACGAGCAAUAUUACGAGCU | -2.28 ± 0.33 | –
3 | UACGAGCAAUAUUACGAUCC | -3.23 ± 0.33 | –
4 | UACGAGCAAUAUUACGAUCG | -0.594 ± 0.1 | -0.663 ± 0.13
5 | UACGAGCAAUAUUACGCAAG | -2.57 ± 0.15 | -2.03 ± 0.35
6 | UACGAGCAAUAUUACGCACC | -1.91 ± 0.39 | –
7 | UACGAGCAAUAUUACGCAGG | -2.88 ± 0.21 | -2.64 ± 0.22
8 | UACGAGCAAUAUUACGCCCC | -2.16 ± 0.44 | –
9 | UACGAGCAAUAUUACGCCGG | -2.84 ± 0.29 | 0.206 ± 0.22
10 | UACGAGCAAUAUUACGCGUC | -1.91 ± 0.13 | -2.3 ± 0.19
11 | UACGAGCAAUAUUACGCGUU | -1.67 ± 0.2 | -3.64 ± 0.42
12 | UACGAGCAAUAUUACGCUAA | -2.89 ± 0.42 | -2.85 ± 0.35
13 | UACGAGCAAUAUUACGCUGU | -2.78 ± 0.28 | -1.47 ± 0.39
14 | UACGAGCAAUAUUACGCUUU | -4.61 ± 0.42 | -2.4 ± 0.22
15 | UACGAGCAAUAUUACGGAGU | – | -2.68 ± 0.23
16 | UACGAGCAAUAUUACGGCGG | -1.79 ± 0.13 | -1.08 ± 0.17
17 | UACGAGCAAUAUUACGGGCA | -1.77 ± 0.089 | -0.925 ± 0.087
18 | UACGAGCAAUAUUACGUAGA | -3.47 ± 0.17 | -2.77 ± 0.29
19 | UACGAGCAAUAUUACGUCGG | -3.5 ± 0.23 | -1.38 ± 0.15
20 | UACGAGCAAUAUUACGUUUG | -3.84 ± 0.27 | -1.94 ± 0.17
21 | UACUAGCAAUAUUACGAUUA | -0.867 ± 0.13 | 0.62 ± 0.16
22 | UACUAGCAAUAUUACGAUUC | -2.3 ± 0.23 | -1.76 ± 0.43
23 | UACUAGCAAUAUUACGCACA | -0.646 ± 0.079 | 0.021 ± 0.092
24 | UACUAGCAAUAUUACGCCAU | -2.57 ± 0.26 | -3.06 ± 0.33
25 | UACUAGCAAUAUUACGCCGA | -1.25 ± 0.19 | -0.403 ± 0.17

Row | Sequence | self-splicing fitness (ln) (30 °C) | self-splicing fitness (ln) (37 °C)
26 | UACUAGCAAUAUUACGCCUU | -1.93 ± 0.15 | -0.434 ± 0.13
27 | UACUAGCAAUAUUACGCGCC | – | -1.37 ± 0.37
28 | UACUAGCAAUAUUACGGGCA | -0.178 ± 0.071 | 0.53 ± 0.11
29 | UACUAGCAAUAUUACGGUUC | -2.29 ± 0.29 | -1.63 ± 0.39
30 | UACUAGCAAUAUUACGUAAC | -2.8 ± 0.17 | -3.33 ± 0.42
31 | UACUAGCAAUAUUACGUACA | -1.56 ± 0.12 | -0.448 ± 0.13
32 | UACUAGCAAUAUUACGUAGG | -4.09 ± 0.35 | -1.69 ± 0.22
33 | UACUAGCAAUAUUACGUAGU | -3.62 ± 0.22 | -1.65 ± 0.25
34 | UACUAGCAAUAUUACGUAUC | -2.06 ± 0.2 | -2.9 ± 0.4
35 | UACUAGCAAUAUUACGUCGC | -4.8 ± 0.46 | -3.62 ± 0.24
36 | UACUAGCAAUAUUACGUCUC | -3.59 ± 0.32 | -2.93 ± 0.31
37 | UACUAGCAAUAUUACGUUAG | -3.54 ± 0.19 | -2.66 ± 0.23
38 | UACUAGCAAUAUUACGUUGC | -2.38 ± 0.26 | -1.85 ± 0.28
39 | UAGAAGCAAUAUUACGACUU | -0.772 ± 0.11 | -0.183 ± 0.17
40 | UAGAAGCAAUAUUACGAGAA | -1.7 ± 0.44 | -1.55 ± 0.35
41 | UAGAAGCAAUAUUACGAGCG | -0.732 ± 0.096 | -0.815 ± 0.13
42 | UAGAAGCAAUAUUACGAGGA | -3.7 ± 0.2 | -2.06 ± 0.15
43 | UAGAAGCAAUAUUACGCAGA | -3.4 ± 0.34 | -1.79 ± 0.18
44 | UAGAAGCAAUAUUACGCAUC | -3 ± 0.23 | -3.37 ± 0.31
45 | UAGAAGCAAUAUUACGCCUA | -0.42 ± 0.13 | 0.0572 ± 0.14
46 | UAGAAGCAAUAUUACGCGGA | -1.64 ± 0.13 | -0.655 ± 0.11
47 | UAGAAGCAAUAUUACGCGUA | -0.436 ± 0.11 | -0.472 ± 0.12
48 | UAGAAGCAAUAUUACGCUUU | – | -1.99 ± 0.3
49 | UAGAAGCAAUAUUACGGCGG | -0.497 ± 0.099 | 0.388 ± 0.12
